From US20210340276A1 (published 2021)

B1: P10-1 Fab (Fab, V domains shown)
VH: QVQLVQSGAEVKKPGASVKVSCKASGYTFTNYGLSWVRQAPGQGLEWMGENHPGSGIIYHNEKFRGRVTLTADRSTSTAYMELSSLRSEDTAVYYCARSSGTRGFAYWGQGTLVTVSS
VL: DVVMTQTPLSLSVTPGQPASISCRSSQSIVHSNGNTYLEWYLQKPGQSPQLLIYRVSNRFSGVPDRFSGSGSGTDFTLKISRVEAEDVGVYYCFQGSHGPWTFGQGTKLEIKR
B2: P10-2 Fab (Fab, V domains shown)
VH: QVQLVQSGAEVKKPGASVKVSCKASGYTFTNYGLSWVRQAPGQGLEWMGENHPGSGIIYHNEKFRGRVTLTADRSTSTAYMELSSLRSEDTAVYYCARSSGTRGFDYWGQGTLVTVSS
VL: DVVMTQTPLSLSVTPGQPASISCRSSQSIVHSNGNTYLEWYLQKPGQSPQLLIYRVSNRFSGVPDRFSGSGSGTDFTLKISRVEAEDVGVYYCFQGSHGPWTFGQGTKLEIKR
modifications: heavy chain N-terminal glutamine modified into pyroglutamic acid in a great majority of purified antibodies (Example 2)

Target: human cancer-specific MUC1 (on breast cancer cell line T-47D cells) (human, UniProt P15941 24-1255, cancer-specific incomplete O-glycosylation (T, Tn, 2,3ST) of the tandem repeat, as described in the background)
Assay: Cell ELISA

Row | Binder | Kd [nM]
1 | B1 | 0.35
2 | B2 | 0.29
